Values joined by “and” are separate entries in the source; they are usually repeats but may differ in a detail not shown here. Equal values may be shown once.
Tested on: CT26 tumors
Test: CT26 mouse colon carcinoma syngeneic model
Format: in vivo
Conditions: CT26; groups of 10 mice; CR = tumor volume ≤25 mm^3 over at least 3 successive measurements

B1: anti mu PD1 (17D2 murinized, VH2xVL1x)[mu IgG2a/k] DANA: Mouse anti-PD-1 antibody, heavy chain SEQ ID NO: 3, light chain SEQ ID NO: 4 (antibody)
heavy: QVTLKESGPGILQSSQTLSLTCTFSGFSLSTYGMGVGWIRQPSGKGLEWLTNIWWDDDKYYNSSLKNRLTVSKDTANNQVFLKFTSVDIADTATYYCGRMEWGGSFDYWGQGIMVTVSSAKTTAPSVYPLAPVCGDTTGSSVTLGCLVKGYFPEPVTLTWNSGSLSSGVHTFPAVLQSDLYTLSSSVTVTSSTWPSQSITCNVAHPASSTKVDKKIEPRGPTIKPCPPCKCPAPNLLGGPSVFIFPPKIKDVLMISLSPIVTCVVVAVSEDDPDVQISWFVNNVEVHTAQTQTHREDYASTLRVVSALPIQHQDWMSGKEFKCKVNNKDLPAPIERTISKPKGSVRAPQVYVLPPPEEEMTKKQVTLTCMVTDFMPEDIYVEWTNNGKTELNYKNTEPVLDSDGSYFMYSKLRVEKKNWVERNSYSCSVVHEGLHNHHTTKSFSRTPGK
light: DIVMTQTPVSLSVSLGGQVSISCRSSQSLEHRNGITFLSWYLQKPGQSPQLLIYKVSNRFSGISDRFSGRGSGTDFVLQINRVEPDDLGVYYCGQGTHYPLTFGSGTKLEIKRADAAPTVSIFPPSSEQLTSGGASVVCFLNNFYPKDINVKWKIDGSERQNGVLNSWTDQDSKDSTYSMSSTLTLTKDEYERHNSYTCEATHKTSTSPIVKSFNRNEC
- complete responses (CR): did not lead to any complete responses and 0/10

Source: patent publication US20190336496A1, “SELECTIVE BCL-2 INHIBITORS IN COMBINATION WITH AN ANTI-PD-1 OR AN ANTI-PD-L1 ANTIBODY FOR THE TREATMENT OF CANCERS” (AbbVie Inc., priority 2018, published 2019)
